These results are taken from patent US20100056764A1 (Novo Nordisk, published 2010).

The target of one assay is T1, mouse NKG2D (mouse, UniProt O54709 1-232, limits assumed).
T1 construct: The assay format for the cross-reactivity test is not described
T1 sequence (looked up): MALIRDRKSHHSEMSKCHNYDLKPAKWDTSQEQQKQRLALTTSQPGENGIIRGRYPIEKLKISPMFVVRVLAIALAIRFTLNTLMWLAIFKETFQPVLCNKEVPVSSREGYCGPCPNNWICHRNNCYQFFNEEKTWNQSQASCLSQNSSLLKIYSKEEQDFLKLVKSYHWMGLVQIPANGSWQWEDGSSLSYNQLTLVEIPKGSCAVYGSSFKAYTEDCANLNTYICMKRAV
Kind of assay: not described.

Assay [1] has as its target T2, cynomolgous monkey NKG2D on NK, CD8+ T and gamma-delta T cells (cynomolgous monkey (Macaca fascicularis), UniProt P61252 1-216).
T2 construct: whole, on cells; Target on cynomolgous PBMC and whole blood cells; also called cynomologous NKG2D; cyno NKG2D
T2 sequence (looked up): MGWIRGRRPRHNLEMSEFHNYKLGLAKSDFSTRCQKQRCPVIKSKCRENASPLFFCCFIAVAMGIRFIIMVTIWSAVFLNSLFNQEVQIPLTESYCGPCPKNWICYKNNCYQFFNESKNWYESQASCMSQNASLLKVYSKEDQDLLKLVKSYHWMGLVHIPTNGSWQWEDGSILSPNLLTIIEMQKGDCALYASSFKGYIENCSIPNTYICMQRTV
Kind of assay: flow cytometry on cynomolgous PBMC, NK cells gated; the legend names 16F16 purified from the original hybridoma. As to the method: Flow cytometry assay—man and monkey PBMC. Perifieral blood mononuclear cells (PMBCs) were isolated from humans, or from Cynomologous or Rhesus monkey. All animal work were performed according to Danish National Research Council guidelines.
(Flow cytometry measures light scatter and fluorescence of single cells or particles in a stream.)

Assay [2] has as its target T3, human NKG2D (hNKG2D) on the cell surface (human, UniProt P26718 1-216).
T3 construct: Carried by BaF/3 cells co-transfected with full-length NKG2D and DAP10, or naturally by human NK, CD8+ T and gamma-delta T cells (PBMC, whole blood); also called cell-surface NKG2D; NKG2D- and DAP10-expressing BaF/3 cells
T3 chain: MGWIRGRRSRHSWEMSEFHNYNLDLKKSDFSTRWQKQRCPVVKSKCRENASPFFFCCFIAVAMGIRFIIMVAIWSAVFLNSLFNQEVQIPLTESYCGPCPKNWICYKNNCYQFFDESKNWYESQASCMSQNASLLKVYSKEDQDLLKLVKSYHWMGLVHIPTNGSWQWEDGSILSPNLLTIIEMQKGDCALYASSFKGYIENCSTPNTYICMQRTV
Kind of assay: flow cytometry, dose-response on NKG2D- and DAP10-expressing BaF/3 cells, y axis % of max binding.

For assay [3], the target named is T3, human NKG2D (hNKG2D) on the cell surface. Kind of assay: flow cytometry, NKG2D/DAP10 BaF/3 cells pre-incubated with antibody, then 1 µg MICA-mFc (competitor). As to the method: Flow cytometry assays—MICA blockade. […] The cells were then analysed on a B&D FACSArray flow cytometer. The degree of reduction of MICA binding by preincubation was analysed as MFI (mean fluorescence intensity) of binding with pre-incubation in % of binding of MICA without preincubation.

For assay [4] the target is unchanged. Kind of assay: cell-based or functional assay.
The target of assay [5] is T4, recombinant NKG2D-Fc protein (R&D Systems), immobilized on a Biacore CM5 chip (human, UniProt P26718 78-216).
T4 construct: also called NKG2D-hFc; hFc-NKG2D; not shown: Fc portion of the purchased fusion protein
T4 sequence: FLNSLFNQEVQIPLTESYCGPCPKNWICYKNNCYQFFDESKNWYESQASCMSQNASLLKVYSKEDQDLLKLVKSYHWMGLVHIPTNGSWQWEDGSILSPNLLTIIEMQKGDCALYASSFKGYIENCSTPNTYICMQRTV
Kind of assay: SPR (Biacore), NKG2D-Fc immobilized on CM5 chip at 600 RU, antibody in solution, Langmuir fit. As to the method:
(§1) Protein immobilisation. […] Recombinant NKG2D-Fc proteins were immobilized covalently to carboxyl groups in the dextran layer on a Sensor Chip CM5 (Biacore GE Healthcare; BR-1000-14). The sensor chip surface was activated with EDC/NHS (N-ethyl-N′-(3-dimethylaminopropyl)carbodiimidehydrochloride and N-hydroxysuccinimide (Biacore GE Healthcare; BR-1000-50)). Proteins were diluted to 10 μg/ml in coupling buffer (10 mM acetate, pH 5.2) and injected until the appropriate immobilization level was reached (i.e. 500 to 1000 RU). Deactivation of the remaining activated groups was performed using 100 mM ethanolamine pH 8 (Biacore GE Healthcare; BR-1000-50).
(§2) Affinity measurement. […] For kinetic experiments, serial dilutions of soluble antibodies (from 0.3 to 30 nanoM) were injected for 2 min at a constant flow rate of 40 μl/min on dextran layers containing immobilized NKG2D-Fc proteins (500 to 1000 RU), and allowed to dissociate for 3 min before regeneration by a eight second injection of 500 mM NaCl and 10 mM NaOH buffer. The resulting sensorgrams were analysed by global fitting using the Langmuir model. The dissociation constant (KD) was calculated as KD=kd/ka.

Assay [6] concerns the target T4, recombinant NKG2D-Fc protein (R&D …). Kind of assay: SPR (Biacore), NKG2D-Fc immobilized on CM5 chip at 1200 RU, antibody in solution, Langmuir fit. The method, then: Protein immobilisation. […] Recombinant NKG2D-Fc proteins were immobilized covalently to carboxyl groups in the dextran layer on a Sensor Chip CM5 (Biacore GE Healthcare; BR-1000-14). The sensor chip surface was activated with EDC/NHS (N-ethyl-N′-(3-dimethylaminopropyl)carbodiimidehydrochloride and N-hydroxysuccinimide (Biacore GE Healthcare; BR-1000-50)). […] Deactivation of the remaining activated groups was performed using 100 mM ethanolamine pH 8 (Biacore GE Healthcare; BR-1000-50).
[…] The resulting sensorgrams were analysed by global fitting using the Langmuir model. The dissociation constant (KD) was calculated as KD=kd/ka.
On the technique in general: SPR reads the build-up and loss of mass on a sensor chip optically.

The target of assay [7] is T3, human NKG2D (hNKG2D) on the cell surface. Kind of assay: flow cytometry, dose-response on NKG2D- and DAP10-expressing BaF/3 cells.
For assay [8], the target named is T4, recombinant NKG2D-Fc protein (R&D …). Kind of assay: SPR (Biacore), mean of the two NKG2D-Fc densities. As to the method:
as §1, §2

Where “and” joins values, the source holds several entries; their conditions need not be identical. Equal entries are not always repeated.

B1: 16F16, fully human anti-hNKG2D monoclonal antibody, recombinantly expressed as IgG4 isotype (antibody, V domains shown)
VH: EVQLVESGGGLVKPGGSLRLSCAASGFTFSSYSMNWVRQAPGKGLEWVSSITSSSSYIYYADSVKGRFTISRDNAKNSLYLQMNSLRAEDTAVYYCARDRRYFDWFPLDYRGQGTLVTVSS
VL: DIQMTQSPSSLSASVGDRVTITCRASQGISSWLAWYQQKPEKAPKSLIYAASSLQSGVPSRFSGSGSGTDFTLTISSLQPEDFATYYCQQYNGYPYTFGQGTKLEIKR
notes: also called 16F16 IgG4; 16F16 (IgG4)
As usually defined, the EC50 (read off the curve) is the concentration that produces a half-maximal response. As a reminder, the IC50 is the midpoint of a concentration-inhibition curve. In general, Kd refers to the constant that tells how readily two partners part at equilibrium. A word on the EC50: it is the concentration at which the effect is half-maximal. Take B1: the binding result with mouse NKG2D is given as “no binding”; in assay [1], “binds”. In assay [2], the “EC50 (read off the curve)” value is roughly 0.03 nM. In addition, the IC50 in assay [3] is 0.017 nM. Also, the “EC50 (µg/ml), inhibition of NK cell killing of MICA-expressing target cells (51Cr release)” value in assay [4] was found to be 0.14 µg/mL. Also, in [4], the “EC50 (µg/ml), inhibition of NK cell killing of ULPB3-expressing target cells (51Cr release)” value was 0.35 µg/mL. Also, the Kd in [5] came out at 0.165 nM; in assay [6] it was 0.178 nM; in assay [8] it was 0.172 nM. The EC50 in [7] is 0.051 µg/mL and ~0.34 nM.
